Source: paper PMC11250742, “Preclinical evaluation of CXCR4 peptides for targeted radionuclide therapy in glioblastoma” (EJNMMI Radiopharmacy and Chemistry, 2024)
Where a SMILES comes first, the peptide text is derived from it. Bridges are numbered along the chain shown (N, C = ends). [ ]: non-standard residue; d: D form. The star is where a group is joined. DOTA = O=C(O)CN1CCN(CC(=O)O)CCN(CC(=O)*)CCN(CC(=O)O)CC1; 2Nal = N[C@@H](Cc1ccc2ccccc2c1)C(=O)O; Cit = NC(=O)NCCC[C@H](N)C(=O)O

Experiment: in vivo
Set-up: species or system BALB/c nude mice
Conditions: mouse; for tissue uptake dose at 4 h / SUV at 4 h: BALB/c nude, iv, total radioactivity; for tissue uptake dose at 4 h: %IA
Protocol: For the generation of the subcutaneous GBM xenograft model, BALB/c nude mice (between 8 and 12 weeks old) were anesthetised with 2.5% isoflurane in O2 at a flow rate of 0.2 L/min and subcutaneously injected on the right shoulder with 3 × 10^6 U87-CXCR4 + cells resuspended in a 1:1 mixture of PBS and Cultrex BME (R&D Systems, Bio-Techne, Minnesota, US). Tumours were left to grow for ten days before the start of the experiment. Tumour volumes were calculated as length × width × height. Three days before the experiment, the mean tumour volumes of all mice were 255 ± 119 mm^3.
All animals were anesthetised with 2.5% isoflurane in O2 at a flow rate of 1 L/min and intravenously (IV) injected with 1.5 MBq of [^177Lu]Lu-POL3026 via a tail vein (radiolabelled with a Am of 53.1 ± 0.55 MBq/nmol). The mice were sacrificed by an overdose of pentobarbital (200 µL of 60 mg/mL) at 1-, 4-, 24- and 168 h post-injection (p.i.) (n = 3–4 per time point), followed by cardiac puncture. Organs of interest were collected in tarred tubes and weighed. The activity in the different organs was measured in the automated gamma counter described above. For the calculation of the total activity in the blood, bone, and muscle, the masses were assumed to be 7, 12 and 40% of the total body mass, respectively. Data is shown as standardised uptake value (SUV), calculated using the following equation:
SUV = [Activity in organ (cpm) / Organ weight (g)] / [(Injected activity (cpm) / Total body weight (g)].
A separate study was performed to evaluate the specificity of the uptake of [^177Lu]Lu-POL3026 in U87-CXCR4 + subcutaneous tumours and the rest of the organs. This was done by creating two groups (n = 4 / group), one group pre-injected intraperitoneally (IP) with 5 mg/kg of AMD11070, 30 min before the IV injection of [^177Lu]Lu-POL3026, while the other group was pre-injected with the DMSO vehicle. Mice from both groups were sacrificed 4 h post-injection and organs were collected as previously described.

## N=C(N)NCCC[C@@H]1NC(=O)[C@@H]2CSSC[C@H](NC(=O)[C@H](Cc3ccc4ccccc4c3)NC(=O)[C@H](CCCNC(=N)N)NC(=O)[C@H](CCCNC(=N)N)NC(=O)[C@H]3CCCN3C(=O)CNC1=O)C(=O)N[C@@H](Cc1ccc(O)cc1)C(=O)N[C@@H](CCC(N)=O)C(=O)N[C@@H](CCCCNC(=O)CN1CCN(CC(=O)O)CCN(CC(=O)O)CCN(CC(=O)O)CC1)C(=O)N1CCC[C@@H]1C(=O)N1CCC[C@H]1C(=O)N[C@@H](Cc1ccc(O)cc1)C(=O)N[C@@H](CCCNC(=N)N)C(=O)N[C@@H](CCCNC(N)=O)C(=O)N2 [[^177Lu]Lu-DOTA-POL3026, metal not drawn] (cyclo(RR[2Nal]CYQK(DOTA)[dP]PYR[Cit]CRG[dP]); disulfide 4-13)
5 mg/kg, Blood
  tissue uptake dose at 4 h: 0.33 %ID
  SUV at 4 h: 0.05 SUV
5 mg/kg, Blood on tissue paper
  tissue uptake dose at 4 h: 0.97 %ID
5 mg/kg, Bone
  tissue uptake dose at 4 h: 5.16 %ID
  SUV at 4 h: 0.43 SUV
5 mg/kg, Brain
  tissue uptake dose at 4 h: 0.01 %ID
5 mg/kg, Carcass
  tissue uptake dose at 4 h: 9.91 %ID
5 mg/kg, Heart
  tissue uptake dose at 4 h: 0.03 %ID
  SUV at 4 h: 0.06 SUV
5 mg/kg, Intestines
  tissue uptake dose at 4 h: 1.17 %ID
5 mg/kg, Kidneys
  tissue uptake dose at 4 h: 5.44 %ID
  SUV at 4 h: 3.74 SUV
5 mg/kg, Liver
  tissue uptake dose at 4 h: 33.8 %ID
  SUV at 4 h: 5.76 SUV
5 mg/kg, Lungs
  tissue uptake dose at 4 h: 0.35 %ID
  SUV at 4 h: 0.57 SUV
5 mg/kg, Muscle
  tissue uptake dose at 4 h: 1.02 %ID
  SUV at 4 h: 0.03 SUV
5 mg/kg, Pancreas
  tissue uptake dose at 4 h: 0.02 %ID
  SUV at 4 h: 0.03 SUV
5 mg/kg, Spleen
  tissue uptake dose at 4 h: 0.51 %ID
  SUV at 4 h: 1.41 SUV
5 mg/kg, Stomach
  tissue uptake dose at 4 h: 0.06 %ID
5 mg/kg, Tail
  tissue uptake dose at 4 h: 3.44 %ID
5 mg/kg, Tumour
  tissue uptake dose at 4 h: 1.68 %ID
  SUV at 4 h: 1.59 SUV
1.5 MBq, Blood
  tissue uptake dose at 4 h: 2.91 %ID
  SUV at 4 h: 0.42 SUV
1.5 MBq, Blood on tissue paper
  tissue uptake dose at 4 h: 1.34 %ID
1.5 MBq, Bone
  tissue uptake dose at 4 h: 6.85 %ID
  SUV at 4 h: 0.57 SUV
1.5 MBq, Brain
  tissue uptake dose at 4 h: 0.02 %ID
  SUV at 4 h: 0.01 SUV
1.5 MBq, Carcass
  tissue uptake dose at 4 h: 20.3 %ID
1.5 MBq, Heart
  tissue uptake dose at 4 h: 0.16 %ID
  SUV at 4 h: 0.37 SUV
1.5 MBq, Intestines
  tissue uptake dose at 4 h: 2.43 %ID
1.5 MBq, Kidneys
  tissue uptake dose at 4 h: 5.12 %ID
  SUV at 4 h: 3.84 SUV
1.5 MBq, Liver
  tissue uptake dose at 4 h: 33.5 %ID
  SUV at 4 h: 6.18 SUV
1.5 MBq, Lungs
  tissue uptake dose at 4 h: 1.23 %ID
  SUV at 4 h: 2.29 SUV
1.5 MBq, Muscle
  tissue uptake dose at 4 h: 3.35 %ID
  SUV at 4 h: 0.08 SUV
1.5 MBq, Pancreas
  tissue uptake dose at 4 h: 0.12 %ID
  SUV at 4 h: 0.15 SUV
1.5 MBq, Spleen
  tissue uptake dose at 4 h: 1.74 %ID
  SUV at 4 h: 4.83 SUV
1.5 MBq, Stomach
  tissue uptake dose at 4 h: 0.18 %ID
1.5 MBq, Tail
  tissue uptake dose at 4 h: 2.77 %ID
1.5 MBq, Tumour
  tissue uptake dose at 4 h: 3.35 %ID
  SUV at 4 h: 2.58 SUV
ip, 5 mg/kg
  SUV, Brain: 0.00
